Test results from publication PMC7354515 (Viruses, 2020).

How the values were obtained:
[1] = biological target: CuV VP2 (CuV capsid, virus-like particle) (Cutavirus, UniProt A0A1B0VEZ1); experiment: glycan microarray (CFG v5.[…]), DyLight 488-labelled VLPs; assay type: binding; details: immobilised glycan; PBS/Tween-20, room temperature; weak signal, authors advise caution
[2] = biological target: Tusavirus (TuV) VP2, assembled as virus-like particles (tusavirus (TuV)); experiment: cryo-EM structure
[3] = biological target: Cutavirus (CuV) VP2, assembled as virus-like particles (cutavirus (CuV)); experiment: cryo-EM structure

CC(=O)N[C@H]1C(O)O[C@H](CO)[C@@H](O[C@@H]2O[C@H](CO)[C@H](O)[C@H](O)[C@H]2O)[C@@H]1O[C@@H]1O[C@@H](C)[C@@H](O)[C@@H](O)[C@@H]1O (stereo partly drawn) [LeX]
glycan microarray (CFG v5.2), DyLight 488-labelled VLPs [1]: the minimal LeX motif was weakly bound by CuV

Tusavirus (TuV) VP2, assembled as virus-like particles (natural protein)
stoichiometry N [2]: 60

Cutavirus (CuV) VP2, assembled as virus-like particles (natural protein)
stoichiometry N [3]: 60
